These results are taken from paper PMC8363014, “OsMADS23 phosphorylated by SAPK9 confers drought and salt tolerance by regulating ABA biosynthesis in rice” (PLoS Genetics, 2021).

In this test the target is T1, His-SAPK9 (rice, UniProt Q75V57 1-361).
T1 construct: SnRK2-type protein kinase SAPK9 from rice; source: E. coli DE3, pET-32a (+), purified
T1 sequence (looked up): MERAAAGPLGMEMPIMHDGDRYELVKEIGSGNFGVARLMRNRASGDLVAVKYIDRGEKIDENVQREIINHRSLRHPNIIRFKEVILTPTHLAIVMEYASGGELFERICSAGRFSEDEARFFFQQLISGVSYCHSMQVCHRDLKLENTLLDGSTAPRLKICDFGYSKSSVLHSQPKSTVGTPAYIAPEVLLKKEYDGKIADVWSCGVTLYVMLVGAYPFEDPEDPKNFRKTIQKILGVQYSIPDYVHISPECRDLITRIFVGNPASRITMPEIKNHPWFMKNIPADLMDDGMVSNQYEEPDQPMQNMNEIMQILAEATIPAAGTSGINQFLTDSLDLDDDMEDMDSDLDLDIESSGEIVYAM
Briefly: pull-down; 0.5 mg GST-OsMADS23 or GST on GST Bind Resin, 4°C, 2 h; then 0.5 mg purified His-SAPK9 for 2 h; three washes; western blot with anti-His. The following applies: both partners purified. (In western blotting, separated proteins are transferred to a membrane and probed.)

B1: GST-tagged OsMADS23 (natural protein)
chain: not shown
notes: MADS-box transcription factor OsMADS23 from rice; Printed as GST-OsMADS23; also called GST-OsMADS23; source: E. coli BL21 (DE3), pGEX-4T-1, purified
Turning to B1, the binding result is recorded as “binds”.
